System: BirA*-FLAG-GATAD1 variants in Flp-In-293 cells
Assay: BioID proximity labelling of full-length GATAD1 variants (SILAC)
Type: cell-based, human
Details: GATAD1 WT vs S102P, significant proteins only; for Log2_Ratio.H.L.normalized.WT_S102P_forward: forward experiment (label swap performed, sign inverted against the H/L ratio); for Log2_Ratio.H.L.normalized.WT_S102P_forward / Log2_Ratio.H.L.normalized.WT_S102P_reverse: log2 of normalized H/L ratio; for Ratio.H.L.normalized.WT_S102P_forward: forward experiment; for Log2_Ratio.H.L.normalized.WT_S102P_reverse / Ratio.H.L.normalized.WT_S102P_reverse: reverse experiment
Description: The GATAD1 gene variants were ordered in a pTwist ENTR Kozak vector from Twist Bioscience. The genes were then transferred to a pDEST_pcDNA5_BirA_FLAG_Nterm vector[97] using the Gateway Clonase II system (Thermo Fisher Scientific). The resulting vectors, pEXPR_GATAD1-WT_N-term_BirA_FLAG, pEXPR_GATAD1-S102P_N-term_BirA_FLAG, pEXPR_GATAD1-S102D_N-term_BirA_FLAG, and pEXPR_GATAD1-S102A_N-term_BirA_FLAG, were used to generate tetracycline-inducible stable Flp-In^TM-293 T-REx cells. A 6-well plate was co-transfected with 0.5 µg of the pEXPR plasmid and 1 µg of the pOG44 Flp-recombinase expression vector (Thermo Fisher Scientific) using 4.5 µg of PEI (Polysciences) as a transfection reagent. The following day, the cells were trypsinized and transferred to a 10 cm dish containing DMEM supplemented with 10% FCS and 200 µg/ml hygromycin B (Invivogen) for selection. The cells were cultured for approximately 18 days with media exchange every 3 days until visible colonies were observed. After around 18 days, the colonies were trypsinized and transferred to another 10 cm dish for further characterization and experiments.
Stable Flp-In^TM-293 cell lines expressing GATAD1 variants were cultured using SILAC light (Lys0, Arg0) and SILAC heavy (Lys8, Arg10) media, as explained in the cell culture section. After full labeling, cells were split into 15 cm dishes and were treated with 1 μg/mL tetracycline for 24 h to induce the expression of GATAD1. After the induction period, cells were incubated with 50 μM biotin overnight for proximity biotinylation. As a control, wild-type GATAD1 cells, without biotin or tetracycline addition, were used. Samples were multiplexed, as shown in Supplementary Fig. 41A with both forward and reverse label swap (n = 2). Cells were then lysed in lysis buffer (50 mM Tris-HCl pH 7.5, 150 mM NaCl, 1% Triton X-100, 1 mM EDTA, 1 mM EGTA, 0.1% SDS) with freshly added protease inhibitors and 1% sodium deoxycholate. To digest the excess DNA, 1 μl of Benzonase was added, and the samples were incubated for 20 min at 37 °C. Biotinylated proteins were enriched for 3 h at 4 °C using streptavidin-sepharose beads (GE Cat# 17-5113-01). Beads were pre-washed twice with 0.01% BSA and twice with lysis buffer. After enrichment, the beads were washed one time with lysis buffer, two times with washing buffer (50 mM HEPES-KOH pH 8.0, 100 mM KCl, 10% glycerol, 2 mM EDTA, 0.1% NP-40), and six times with 50 mM ammonium bicarbonate. Beads were resuspended in ammonium bicarbonate, and an on-bead protein digest with 1 μg of trypsin followed overnight. The next day, the digested proteins were transferred to a fresh tube and were incubated with 10 mM DTT for 30 min at 37 °C and with 55 mM iodoacetamide for 20 min at 37 °C in the dark. Samples were desalted with StageTips.
Peptides were separated using reversed-phase liquid chromatography (EASY nLC II 1200, Thermo Fisher Scientific) with self-made C18 microcolumns (20 cm long) packed with ReproSil-Pur C18-AQ 1.9 μm resin (Dr. Maisch, cat# r119.aq.0001). The chromatography system was coupled online to the electrospray ion source (Proxeon) of an Orbitrap Exploris 480 mass spectrometer (Thermo Fisher Scientific). The mobile phase consisted of buffer A (0.1% formic acid and 5% acetonitrile) and buffer B (0.1% formic acid and 80% acetonitrile). Peptides were eluted using a gradient with increasing concentrations of buffer B over 110 minutes, at a flow rate of 250 nl/min. Mass spectrometry data was acquired in data-dependent mode with settings for one full scan (resolution: 60,000; m/z range: 350–1600; normalized AGC target: 300%; maximum injection time: 10 ms), followed by top 20 MS/MS scans using higher-energy collisional dissociation (resolution: 15,000; m/z range: 200–2000; normalized AGC target: 100%; maximum injection time: 120 ms; isolation width: 1.3 m/z; normalized collision energy: 28%).
Raw files were analyzed with MaxQuant, version 2.0.3.0. […]

B1: TMPO (protein, UniProt P42166 2-694, looked up)
Lamina-associated polypeptide …: PEFLEDPSVLTKDKLKSELVANNVTLPAGEQRKDVYVQLYLQHLTARNRPPLPAGTNSKGPPDFSSDEEREPTPVLGSGAAAAGRSRAAVGRKATKKTDKPRQEDKDDLDVTELTNEDLLDQLVKYGVNPGPIVGTTRKLYEKKLLKLREQGTESRSSTPLPTISSSAENTRQNGSNDSDRYSDNEEGKKKEHKKVKSTRDIVPFSELGTTPSGGGFFQGISFPEISTRPPLGSTELQAAKKVHTSKGDLPREPLVATNLPGRGQLQKLASERNLFISCKSSHDRCLEKSSSSSSQPEHSAMLVSTAASPSLIKETTTGYYKDIVENICGREKSGIQPLCPERSHISDQSPLSSKRKALEESESSQLISPPLAQAIRDYVNSLLVQGGVGSLPGTSNSMPPLDVENIQKRIDQSKFQETEFLSPPRKVPRLSEKSVEERDSGSFVAFQNIPGSELMSSFAKTVVSHSLTTLGLEVAKQSQHDKIDASELSFPFHESILKVIEEEWQQVDRQLPSLACKYPVSSREATQILSVPKVDDEILGFISEATPLGGIQAASTESCNQQLDLALCRAYEAAASALQIATHTAFVAKAMQADISQAAQILSSDPSRTHQALGILSKTYDAASYICEAAFDEVKMAAHTMGNATVGRRYLWLKDCKINLASKNKLASTPFKGGTLFGGEVCKVIKKRGNKH
Q: What does the source list for B1?
A: Log2_Ratio.H.L.normalized.WT_S102P_forward: 1.365; Ratio.H.L.normalized.WT_S102P_forward: 0.3882; Log2_Ratio.H.L.normalized.WT_S102P_reverse: 1.174; Ratio.H.L.normalized.WT_S102P_reverse: 2.2568

B2: GTF2E1 (protein, UniProt P29083 2-439, looked up)
General transcription factor …: ADPDVLTEVPAALKRLAKYVIRGFYGIEHALALDILIRNSCVKEEDMLELLKFDRKQLRSVLNNLKGDKFIKCRMRVETAADGKTTRHNYYFINYRTLVNVVKYKLDHMRRRIETDERDSTNRASFKCPVCSSTFTDLEANQLFDPMTGTFRCTFCHTEVEEDESAMPKKDARTLLARFNEQIEPIYALLRETEDVNLAYEILEPEPTEIPALKQSKDHAATTAGAASLAGGHHREAWATKGPSYEDLYTQNVVINMDDQEDLHRASLEGKSAKERPIWLRESTVQGAYGSEDMKEGGIDMDAFQEREEGHAGPDDNEEVMRALLIHEKKTSSAMAGSVGAAAPVTAANGSDSESETSESDDDSPPRPAAVAVHKREEDEEEDDEFEEVADDPIVMVAGRPFSYSEVSQRPELVAQMTPEEKEAYIAMGQRMFEDLFE
Q: What does the source list for B2?
A: Log2_Ratio.H.L.normalized.WT_S102P_forward: 1.078; Ratio.H.L.normalized.WT_S102P_forward: 0.4738; Log2_Ratio.H.L.normalized.WT_S102P_reverse: 1.217; Ratio.H.L.normalized.WT_S102P_reverse: 2.3239

B3: TXNL1 (protein, UniProt O43396 2-289, looked up)
Thioredoxin-like protein 1: VGVKPVGSDPDFQPELSGAGSRLAVVKFTMRGCGPCLRIAPAFSSMSNKYPQAVFLEVDVHQCQGTAATNNISATPTFLFFRNKVRIDQYQGADAVGLEEKIKQHLENDPGSNEDTDIPKGYMDLMPFINKAGCECLNESDEHGFDNCLRKDTTFLESDCDEQLLITVAFNQPVKLYSMKFQGPDNGQGPKYVKIFINLPRSMDFEEAERSEPTQALELTEDDIKEDGIVPLRYVKFQNVNSVTIFVQSNQGEEETTRISYFTFIGTPVQATNMNDFKRVVGKKGESH
Q: How did the Log2_Ratio.H.L.normalized.WT_S102P_forward turn out when B3 was run?
A: 1.514

Q: And the Ratio.H.L.normalized.WT_S102P_forward?
A: 0.3502

Q: And the Log2_Ratio.H.L.normalized.WT_S102P_reverse?
A: 1.19

Q: What about the Ratio.H.L.normalized.WT_S102P_reverse of the same molecule?
A: 2.2812

B4: TOX4 (protein, UniProt O94842 1-621, looked up)
TOX high mobility group box …: MEFPGGNDNYLTITGPSHPFLSGAETFHTPSLGDEEFEIPPISLDSDPSLAVSDVVGHFDDLADPSSSQDGSFSAQYGVQTLDMPVGMTHGLMEQGGGLLSGGLTMDLDHSIGTQYSANPPVTIDVPMTDMTSGLMGHSQLTTIDQSELSSQLGLSLGGGTILPPAQSPEDRLSTTPSPTSSLHEDGVEDFRRQLPSQKTVVVEAGKKQKAPKKRKKKDPNEPQKPVSAYALFFRDTQAAIKGQNPNATFGEVSKIVASMWDSLGEEQKQVYKRKTEAAKKEYLKALAAYKDNQECQATVETVELDPAPPSQTPSPPPMATVDPASPAPASIEPPALSPSIVVNSTLSSYVANQASSGAGGQPNITKLIITKQMLPSSITMSQGGMVTVIPATVVTSRGLQLGQTSTATIQPSQQAQIVTRSVLQAAAAAAAAASMQLPPPRLQPPPLQQMPQPPTQQQVTILQQPPPLQAMQQPPPQKVRINLQQQPPPLQIKSVPLPTLKMQTTLVPPTVESSPERPMNNSPEAHTVEAPSPETICEMITDVVPEVESPSQMDVELVSGSPVALSPQPRCVRSGCENPPIVSKDWDNEYCSNECVVKHCRDVFLAWVASRNSNTVVFVK
Q: How did the Log2_Ratio.H.L.normalized.WT_S102P_forward turn out when B4 was run?
A: 1.265

Q: And the Ratio.H.L.normalized.WT_S102P_forward?
A: 0.416

Q: What about the Log2_Ratio.H.L.normalized.WT_S102P_reverse of the same molecule?
A: 1.044

Q: What about the Ratio.H.L.normalized.WT_S102P_reverse of the same molecule?
A: 2.0619

B5: GTF2A1 (protein, UniProt P52655 2-376, looked up)
Transcription initiation …: ANSANTNTVPKLYRSVIEDVINDVRDIFLDDGVDEQVLMELKTLWENKLMQSRAVDGFHSEEQQLLLQVQQQHQPQQQQHHHHHHHQQAQPQQTVPQQAQTQQVLIPASQQATAPQVIVPDSKLIQHMNASNMSAAATAATLALPAGVTPVQQILTNSGQLLQVVRAANGAQYIFQPQQSVVLQQQVIPQMQPGGVQAPVIQQVLAPLPGGISPQTGVIIQPQQILFTGNKTQVIPTTVAAPTPAQAQITATGQQQPQAQPAQTQAPLVLQVDGTGDTSSEEDEDEEEDYDDDEEEDKEKDGAEDGQVEEEPLNSEDDVSDEEGQELFDTENVVVCQYDKIHRSKNKWKFHLKDGIMNLNGRDYIFSKAIGDAEW
Q: Which results are given for B5?
A: Log2_Ratio.H.L.normalized.WT_S102P_forward: 1.42; Ratio.H.L.normalized.WT_S102P_forward: 0.3738; Log2_Ratio.H.L.normalized.WT_S102P_reverse: 1.224; Ratio.H.L.normalized.WT_S102P_reverse: 2.3357

B6: GSTP1 (protein, UniProt P09211 2-210, looked up)
Glutathione S-transferase P: PPYTVVYFPVRGRCAALRMLLADQGQSWKEEVVTVETWQEGSLKASCLYGQLPKFQDGDLTLYQSNTILRHLGRTLGLYGKDQQEAALVDMVNDGVEDLRCKYISLIYTNYEAGKDDYVKALPGQLKPFETLLSQNQGGKTFIVGDQISFADYNLLDLLLIHEVLAPGCLDAFPLLSAYVGRLSARPKLKAFLASPEYVNLPINGNGKQ
Q: Which Log2_Ratio.H.L.normalized.WT_S102P_forward does the source give for B6 here?
A: -1.4183

Q: And the Ratio.H.L.normalized.WT_S102P_forward?
A: 2.6727

Q: And the Log2_Ratio.H.L.normalized.WT_S102P_reverse?
A: -1.579

Q: What about the Ratio.H.L.normalized.WT_S102P_reverse of the same molecule?
A: 0.3348

B7: GTF2E2 (protein, UniProt P29084 1-291, looked up)
Transcription initiation …: MDPSLLRERELFKKRALSTPVVEKRSASSESSSSSSKKKKTKVEHGGSSGSKQNSDHSNGSFNLKALSGSSGYKFGVLAKIVNYMKTRHQRGDTHPLTLDEILDETQHLDIGLKQKQWLMTEALVNNPKIEVIDGKYAFKPKYNVRDKKALLRLLDQHDQRGLGGILLEDIEEALPNSQKAVKALGDQILFVNRPDKKKILFFNDKSCQFSVDEEFQKLWRSVTVDSMDEEKIEEYLKRQGISSMQESGPKKVAPIQRRKKPASQKKRRFKTHNEHLAGVLKDYSDITSSK
Q: For B7, which Log2_Ratio.H.L.normalized.WT_S102P_forward is on record?
A: 1.243

Q: And the Ratio.H.L.normalized.WT_S102P_forward?
A: 0.4226

Q: What about the Log2_Ratio.H.L.normalized.WT_S102P_reverse of the same molecule?
A: 1.178

Q: What about the Ratio.H.L.normalized.WT_S102P_reverse of the same molecule?
A: 2.2619

— article PMC11009412, “Pathogenic mutations of human phosphorylation sites affect protein–protein interactions” (Nature Communications, 2024)
